# Laboratory results reported in EP4339209A1 (MediMabbio Inc., dated 2024).
# What was measured:
# [1] = biological target: recombinant human GITR (Cat No. 13643-H08H, Lot No. LC12JA2509, Sino Biological) (human) (UniProt Q9Y5U5); test: SPR Biacore 8K, multi-cycle kinetics, purified IgG captured on Protein A, GITR as analyte
# [2] = biological target: recombinant human GITR (Cat No. 13643-H08H, Lot No. LC12JA2509, Sino Biological) (human) (UniProt Q9Y5U5); test: SPR Biacore 8K, single-cycle kinetics, IgG in supernatant captured on Protein A, GITR as analyte
Binder,Kd [1],Relative KD (fold vs VH0/VL0) [1],koff [1],kon [1],Kd [2],Relative KD (fold vs VH0/VL0) [2],koff [2],kon [2]
"anti-GITR 51B VH1/VL5 humanized antibody (human IgG1, kappa) (antibody, V domains shown) VH: QVQLVQSGAELKKPGASVKLSCKTTGYRFTGYWIEWVRQPPGKGLEWIGEILPGSGATYYSENFKGKATITADTSTNTAYMEVSSLRSGDSAIYYCARKGGYYAMDYWGQGTSVTVSS VL: EIVLTQSPATLSLSPGERATLSCTASSSVSSSYFHWYQQKPGKAPKLWIYSTSNLESGVPDRFSGSGSGTDYTLTISSLQAEDVATYYCHLYHRSPRTFGGGTKVEIKR",,,,,1.41 nM,2.5,0.000628 s⁻¹,445000 M⁻¹ s⁻¹
"anti-GITR 51B VH4/VL5 humanized antibody (human IgG1, kappa) (antibody, V domains shown) VH: QVQLVQSGAEVKKPGASVKVSCKTTGYRFTGYWINWVRQPPGKGLEWIGEILPGSGATYYSENFKGKVTITADTSTDTAYMELSSLRSEDTAIYYCARKGGYYAMDYWGQGTLVTVSS VL: EIVLTQSPATLSLSPGERATLSCTASSSVSSSYFHWYQQKPGKAPKLWIYSTSNLESGVPDRFSGSGSGTDYTLTISSLQAEDVATYYCHLYHRSPRTFGGGTKVEIKR",,,,,1.26 nM,2.2,0.000599 s⁻¹,474000 M⁻¹ s⁻¹
"anti-GITR 51B VH2/VL1 humanized antibody (human IgG1, kappa) (antibody, V domains shown) VH: QVQLVQSGAEVKKPGASVKLSCKTTGYRFTGYWIEWVRQPPGKGLEWIGEILPGSGATYYSENFKGKATITADTSTNTAYMEVSSLRSEDTAIYYCARKGGYYAMDYWGQGTLVTVSS VL: QIVLTQSPAIMSASLGERVTMSCTASSSVSSSYFHWYQQKPGSAPKLWIYSTSNLASGVPDRFSGSGSGTDYTLTVSSLQAEDVATYYCHLYHRSPRTFGGGTTVDIKR",,,,,1.1 nM,1.9,0.000734 s⁻¹,665000 M⁻¹ s⁻¹
"anti-GITR 51B VH5/VL1 humanized antibody (human IgG1, kappa) (antibody, V domains shown) VH: QVQLVQSGAEVKKPGASVKVSCKTTGYRFTGYWIDWVRQPPGKGLEWIGEILPGSGATYYSENFKGKVTITADTSTDTAYMELSSLRSEDTAIYYCARKGGYYAMDYWGQGTLVTVSS VL: QIVLTQSPAIMSASLGERVTMSCTASSSVSSSYFHWYQQKPGSAPKLWIYSTSNLASGVPDRFSGSGSGTDYTLTVSSLQAEDVATYYCHLYHRSPRTFGGGTTVDIKR",,,,,1.94 nM,3.4,0.000742 s⁻¹,382000 M⁻¹ s⁻¹
"anti-GITR 51B VH1/VL0 antibody (human IgG1, kappa) (antibody, V domains shown) VH: QVQLVQSGAELKKPGASVKLSCKTTGYRFTGYWIEWVRQPPGKGLEWIGEILPGSGATYYSENFKGKATITADTSTNTAYMEVSSLRSGDSAIYYCARKGGYYAMDYWGQGTSVTVSS VL: QIVLTQSPAIMSASLGERVTMTCTASSSVSSSYFHWYQQKPGSSPKLWIYSTSNLASGVPARFSGSGSGTSYSLTVSSLEAEDAATYYCHLYHRSPRTFGGGTTLDIKR",,,,,1.08 nM,1.9,0.000654 s⁻¹,603000 M⁻¹ s⁻¹
"anti-GITR 51B VH5/VL5 humanized antibody (human IgG1, kappa) (antibody, V domains shown) VH: QVQLVQSGAEVKKPGASVKVSCKTTGYRFTGYWIDWVRQPPGKGLEWIGEILPGSGATYYSENFKGKVTITADTSTDTAYMELSSLRSEDTAIYYCARKGGYYAMDYWGQGTLVTVSS VL: EIVLTQSPATLSLSPGERATLSCTASSSVSSSYFHWYQQKPGKAPKLWIYSTSNLESGVPDRFSGSGSGTDYTLTISSLQAEDVATYYCHLYHRSPRTFGGGTKVEIKR",,,,,3.32 nM,5.9,0.000975 s⁻¹,294000 M⁻¹ s⁻¹
"anti-GITR 51B VH2/VL4 humanized antibody (human IgG1, kappa) (antibody, V domains shown) VH: QVQLVQSGAEVKKPGASVKLSCKTTGYRFTGYWIEWVRQPPGKGLEWIGEILPGSGATYYSENFKGKATITADTSTNTAYMEVSSLRSEDTAIYYCARKGGYYAMDYWGQGTLVTVSS VL: EIVLTQSPATLSLSPGERATLSCTASSSVSSSYFHWYQQKPGKAPKLWIYSTSNLQSGVPDRFSGSGSGTDYTLTISSLQAEDVATYYCHLYHRSPRTFGGGTKVEIKR",,,,,1.15 nM,2,0.000577 s⁻¹,502000 M⁻¹ s⁻¹
"anti-GITR 51B VH5/VL4 humanized antibody (human IgG1, kappa) (antibody, V domains shown) VH: QVQLVQSGAEVKKPGASVKVSCKTTGYRFTGYWIDWVRQPPGKGLEWIGEILPGSGATYYSENFKGKVTITADTSTDTAYMELSSLRSEDTAIYYCARKGGYYAMDYWGQGTLVTVSS VL: EIVLTQSPATLSLSPGERATLSCTASSSVSSSYFHWYQQKPGKAPKLWIYSTSNLQSGVPDRFSGSGSGTDYTLTISSLQAEDVATYYCHLYHRSPRTFGGGTKVEIKR",,,,,1.37 nM,2.4,0.00149 s⁻¹,1.08e+06 M⁻¹ s⁻¹
"anti-GITR 51B VH2/VL5 humanized antibody (human IgG1, kappa) (antibody, V domains shown) VH: QVQLVQSGAEVKKPGASVKLSCKTTGYRFTGYWIEWVRQPPGKGLEWIGEILPGSGATYYSENFKGKATITADTSTNTAYMEVSSLRSEDTAIYYCARKGGYYAMDYWGQGTLVTVSS VL: EIVLTQSPATLSLSPGERATLSCTASSSVSSSYFHWYQQKPGKAPKLWIYSTSNLESGVPDRFSGSGSGTDYTLTISSLQAEDVATYYCHLYHRSPRTFGGGTKVEIKR",,,,,1.33 nM,2.3,0.000635 s⁻¹,477000 M⁻¹ s⁻¹
"anti-GITR 51B VH1/VL4 humanized antibody (human IgG1, kappa) (antibody, V domains shown) VH: QVQLVQSGAELKKPGASVKLSCKTTGYRFTGYWIEWVRQPPGKGLEWIGEILPGSGATYYSENFKGKATITADTSTNTAYMEVSSLRSGDSAIYYCARKGGYYAMDYWGQGTSVTVSS VL: EIVLTQSPATLSLSPGERATLSCTASSSVSSSYFHWYQQKPGKAPKLWIYSTSNLQSGVPDRFSGSGSGTDYTLTISSLQAEDVATYYCHLYHRSPRTFGGGTKVEIKR",,,,,1.31 nM,2.3,0.000616 s⁻¹,469000 M⁻¹ s⁻¹
"anti-GITR 51B VH1/VL1 humanized antibody (human IgG1, kappa) (antibody, V domains shown) VH: QVQLVQSGAELKKPGASVKLSCKTTGYRFTGYWIEWVRQPPGKGLEWIGEILPGSGATYYSENFKGKATITADTSTNTAYMEVSSLRSGDSAIYYCARKGGYYAMDYWGQGTSVTVSS VL: QIVLTQSPAIMSASLGERVTMSCTASSSVSSSYFHWYQQKPGSAPKLWIYSTSNLASGVPDRFSGSGSGTDYTLTVSSLQAEDVATYYCHLYHRSPRTFGGGTTVDIKR",,,,,1.32 nM,2.3,0.000949 s⁻¹,721000 M⁻¹ s⁻¹

# The remaining lines, values ahead:
Kd [1],Relative KD (fold vs VH0/VL0) [1],koff [1],kon [1],Kd [2],Relative KD (fold vs VH0/VL0) [2],koff [2],kon [2],Binder
0.829 nM,1.45,0.000488 s⁻¹,590000 M⁻¹ s⁻¹,0.987 nM,1.7,0.00053 s⁻¹,537000 M⁻¹ s⁻¹,"anti-GITR 51B VH4/VL4 humanized antibody (human IgG1, kappa) (antibody, V domains shown) VH: QVQLVQSGAEVKKPGASVKVSCKTTGYRFTGYWINWVRQPPGKGLEWIGEILPGSGATYYSENFKGKVTITADTSTDTAYMELSSLRSEDTAIYYCARKGGYYAMDYWGQGTLVTVSS VL: EIVLTQSPATLSLSPGERATLSCTASSSVSSSYFHWYQQKPGKAPKLWIYSTSNLQSGVPDRFSGSGSGTDYTLTISSLQAEDVATYYCHLYHRSPRTFGGGTKVEIKR"
0.778 nM,1.37,0.000456 s⁻¹,586000 M⁻¹ s⁻¹,0.916 nM,1.6,0.000507 s⁻¹,554000 M⁻¹ s⁻¹,"anti-GITR 51B VH3/VL5 humanized antibody (human IgG1, kappa) (antibody, V domains shown) VH: QVQLVQSGAEVKKPGASVKVSCKTTGYRFTGYWIEWVRQPPGKGLEWIGEILPGSGATYYSENFKGKVTITADTSTDTAYMELSSLRSEDTAIYYCARKGGYYAMDYWGQGTLVTVSS VL: EIVLTQSPATLSLSPGERATLSCTASSSVSSSYFHWYQQKPGKAPKLWIYSTSNLESGVPDRFSGSGSGTDYTLTISSLQAEDVATYYCHLYHRSPRTFGGGTKVEIKR"
,,,,1.05 nM,1.9,0.00066 s⁻¹,627000 M⁻¹ s⁻¹,"anti-GITR 51B VH4/VL1 humanized antibody (human IgG1, kappa) (antibody, V domains shown) VH: QVQLVQSGAEVKKPGASVKVSCKTTGYRFTGYWINWVRQPPGKGLEWIGEILPGSGATYYSENFKGKVTITADTSTDTAYMELSSLRSEDTAIYYCARKGGYYAMDYWGQGTLVTVSS VL: QIVLTQSPAIMSASLGERVTMSCTASSSVSSSYFHWYQQKPGSAPKLWIYSTSNLASGVPDRFSGSGSGTDYTLTVSSLQAEDVATYYCHLYHRSPRTFGGGTTVDIKR"
0.606 nM,1.06,0.000482 s⁻¹,796000 M⁻¹ s⁻¹,0.693 nM,1.2,0.000543 s⁻¹,784000 M⁻¹ s⁻¹,"anti-GITR 51B VH3/VL1 humanized antibody (human IgG1, kappa) (antibody, V domains shown) VH: QVQLVQSGAEVKKPGASVKVSCKTTGYRFTGYWIEWVRQPPGKGLEWIGEILPGSGATYYSENFKGKVTITADTSTDTAYMELSSLRSEDTAIYYCARKGGYYAMDYWGQGTLVTVSS VL: QIVLTQSPAIMSASLGERVTMSCTASSSVSSSYFHWYQQKPGSAPKLWIYSTSNLASGVPDRFSGSGSGTDYTLTVSSLQAEDVATYYCHLYHRSPRTFGGGTTVDIKR"
,,,,0.527 nM,0.9,0.000338 s⁻¹,642000 M⁻¹ s⁻¹,"anti-GITR 51B VH0/VL1 antibody (human IgG1, kappa) (antibody, V domains shown) VH: QVQLQQSGAELMKPGASVKLSCKTTGYRFTGYWIEWVKQRPGHGLEWIGEILPGSGATYYSENFKGKATFTADTSSNTAYMQVSSLTTGDSAIYYCARKGGYYAMDYWGQGTSVTVSS VL: QIVLTQSPAIMSASLGERVTMSCTASSSVSSSYFHWYQQKPGSAPKLWIYSTSNLASGVPDRFSGSGSGTDYTLTVSSLQAEDVATYYCHLYHRSPRTFGGGTTVDIKR"
